Measurements as given in patent US20220204599A1 (PRESTIGE BIOPHARMA, published 2022).
Substitutions are numbered along the chain they refer to. Values belong to the binder of their own block, whether it stands above or below them.

What was measured:
[1] = target: T1, collagen triple helix repeat containing-1 (CTHRC1) protein (Homo sapiens (Human), UniProt Q96CG8 31-243); test: indirect ELISA, CTHRC1 coated at 5 µg/mL, anti-human Fc-HRP
T1 construct: The coated protein may in fact have been CTHRC1-His or CTHRC1-Fc
T1 sequence (Q96CG8 31-243 limits assumed): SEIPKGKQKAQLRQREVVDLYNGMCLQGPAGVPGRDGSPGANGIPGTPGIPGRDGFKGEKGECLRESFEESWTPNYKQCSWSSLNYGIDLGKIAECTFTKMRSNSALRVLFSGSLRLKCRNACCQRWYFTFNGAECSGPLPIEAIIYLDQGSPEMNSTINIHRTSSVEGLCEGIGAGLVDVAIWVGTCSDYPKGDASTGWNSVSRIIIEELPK
Experimental: The affinity of cCMAb45 and cCMAb96, which are anti-CTHRC1 chimeric antibodies, prepared in Example 1-3 to the CTHRC1 protein was verified. Indirect ELISA was performed to test the affinity of the antigens and antibodies.
100 μL of CTHRC1 was dispensed at a concentration of 5 μg/mL onto an immuno-plate and coated at 4° C. overnight. The next day, the coated CTHRC1 solution was discarded and blocked for 2 hours. Thereafter, the cCMAb45 and cCMAb96 antibodies were treated at different concentrations and reacted at room temperature for 2 hours, and the antibodies were discarded to remove the unbound antibodies, and then the plate was washed. The OD value was measured using the anti-human Fc-HRP as a second antibody that recognizes human constant regions. In particular, the higher OD value indicates higher affinity between CTHRC1 and the antibodies.

CTHRC1-His = target: T2, CTHRC1-His (Homo sapiens (Human), UniProt Q96CG8 30-243); test: indirect ELISA, CTHRC1-His coated, re-measurement
T2 construct: also called antigen CTHRC1-His
T2 sequence (Q96CG8 other isoform, or with tags, fused parts or gaps limits assumed): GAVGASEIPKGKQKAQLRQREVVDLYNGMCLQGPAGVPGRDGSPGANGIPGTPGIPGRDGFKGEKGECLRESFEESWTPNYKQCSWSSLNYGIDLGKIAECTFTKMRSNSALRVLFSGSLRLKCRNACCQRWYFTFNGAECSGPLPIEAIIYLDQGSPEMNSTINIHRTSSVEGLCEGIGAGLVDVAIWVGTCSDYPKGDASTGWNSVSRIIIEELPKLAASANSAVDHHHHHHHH

Kd [1]: 0.43 nM
B1: cCMAb96 anti-CTHRC1 chimeric antibody (antibody, V domains shown)
VH: QVQLQQPGSELVRPGASVKLSCKASGYTFTSYWMHWVKQRPGQGLEWIGNIYPSSGTTNYDEKFKNKATLTVDTSSTTAYMHLSSLTSEDSAVYYCTTESYWGQGTTLTVSS
VL: DIVMTQSPSSLSASLGDTITITCHASQNINVWLSWYQQKPGNIPKLLIYKASNLHTGVPSRFSGSGSGTGFTLTISSLQPEDIATYYCQQGQSYPLTFGGGTKLEIK
notes: Detected with anti-human kappa light chain-HRP, so the light chain is kappa; also called chimeric 9E6

binding result (CTHRC1-His): binds
B2: hCMAb96 humanized anti-CTHRC1 antibody (antibody, V domains shown)
VH: QVQLVQSGAEVKKPGASVKVSCKASGYTFTSYWMHWVRQAPGQGLEWIGYIYPSSGTTNYNQKFQGRVTITADESTSTAYMELSPLRSEDTAVYYCTTESYWGQGTTVTVSS
VL: B1 VL with V3Q, S34A, N42K, I43A, T56S, G70D, G100Q, L104V
notes: Humanized IgG made by CDR grafting and expressed in HEK293F; also called SA2770; humanized 9E6

Kd [1]: 0.52 nM
B3: cCMAb45 anti-CTHRC1 chimeric antibody (antibody, V domains shown)
VH: EVQLQQSGPELVKPGASVKISCKASGYSFTDYIMLWVKQSHGKSLEWIGNINPYYGSTSYNLKFKGKATLTVDKSSSTAYMQLNSLTSEDSAVYYCARSGYGYDESAMDYWGQGTSVTVSS
VL: DVLMTQTPLSLPVNIGDQASISCKSTKSLLNSDGFTYLDWYLQKPGQSPQLLIYLVSNRFSGVPDRFSGSGSGTDFTLKISRVEAEDLGVYYCFQSNYLPLTFGSGTKLEIK
notes: Detected with anti-human kappa light chain-HRP, so the light chain is kappa; also called chimeric 4H5

binding result (CTHRC1-His): binds
B4: hCMAb45 humanized anti-CTHRC1 antibody (antibody, V domains shown)
VH: QVQLVESGAEVKKPGASVKVSCKASGYSFTDYIILWVRQAPGQGLEWMGAINPYYGSTVYGQKFQGRLTITADGSMSTAYMELSSLRSEDTAVYYCARSGYGYDESAMDYWGQGTLVTVSS
VL: B3 VL with V2I, L3V, N14T, I15P, D17E, Q18P, K24R, T26S, L88V, S105Q
notes: Humanized IgG made by CDR grafting and expressed in HEK293F; also called SA2765; humanized 4H5
